Results: patent US20120178682A1, “GB1 Peptidic Compounds and Methods for Making and Using the Same” (priority 2010, published 2012)

B1: E01 (recombinant, His-tagged) (designed binder)
chain: MKIEEHHHHHHHHHHGGSTYKLILNGKTLKGETTTEAVDVYDAFDVFFVYAASNFSDFDDWTYDDATKTFTVTEGGSDK
B2: E01-D39F/S35R (designed binder)
chain: MKIEEHHHHHHHHHHGGSTYKLILNGKTLKGETTTEAVDVYDAFDVFFVYAARNFSFFDDWTYDDATKTFTVTEGGSDK
B3: E01-D39F/A34S (designed binder)
chain: MKIEEHHHHHHHHHHGGSTYKLILNGKTLKGETTTEAVDVYDAFDVFFVYASSNFSFFDDWTYDDATKTFTVTEGGSDK
B4: E01-D39F/V31A (designed binder)
chain: MKIEEHHHHHHHHHHGGSTYKLILNGKTLKGETTTEAVDVYDAFDVFFAYAASNFSFFDDWTYDDATKTFTVTEGGSDK
B5: E01-D39F/F40I (designed binder)
chain: MKIEEHHHHHHHHHHGGSTYKLILNGKTLKGETTTEAVDVYDAFDVFFVYAASNFSFIDDWTYDDATKTFTVTEGGSDK
B6: E01-D39F (designed binder)
chain: MKIEEHHHHHHHHHHGGSTYKLILNGKTLKGETTTEAVDVYDAFDVFFVYAASNFSFFDDWTYDDATKTFTVTEGGSDK
B7: E01-D39F/S38G (designed binder)
chain: MKIEEHHHHHHHHHHGGSTYKLILNGKTLKGETTTEAVDVYDAFDVFFVYAASNFGFFDDWTYDDATKTFTVTEGGSDK
B8: E01-D39F/D27E (designed binder)
chain: MKIEEHHHHHHHHHHGGSTYKLILNGKTLKGETTTEAVDVYDAFEVFFVYAASNFSFFDDWTYDDATKTFTVTEGGSDK
B9: E01-D39F/S35E (designed binder)
chain: MKIEEHHHHHHHHHHGGSTYKLILNGKTLKGETTTEAVDVYDAFDVFFVYAAENFSFFDDWTYDDATKTFTVTEGGSDK
B10: E01-D39F/S35G (designed binder)
chain: MKIEEHHHHHHHHHHGGSTYKLILNGKTLKGETTTEAVDVYDAFDVFFVYAAGNFSFFDDWTYDDATKTFTVTEGGSDK
B11: E01-D39F/V22L (designed binder)
chain: MKIEEHHHHHHHHHHGGSTYKLILNGKTLKGETTTEAVDLYDAFDVFFVYAASNFSFFDDWTYDDATKTFTVTEGGSDK

The binders below were run against D-VEGF, synthetic D-protein form of VEGF-A(8-109) (Homo sapiens (Human)) (UniProt P15692) (assay: SPR (ProteOn XPR36), D-VEGF immobilized).
D-VEGF, synthetic D-protein form of VEGF-A(8-109) (Homo sapiens (Human)), sequence (P15692 214-315 limits assumed, form in doubt): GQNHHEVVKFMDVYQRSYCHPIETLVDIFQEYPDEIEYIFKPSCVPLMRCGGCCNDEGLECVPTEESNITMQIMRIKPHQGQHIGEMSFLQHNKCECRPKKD

Point of comparison: B4, Kd 2.99 nM. Against it:
- B1 — within 1.5-fold, 3.46 nM
- B2 — 1.8-fold higher, 5.35 nM
- B3 — 1.5-fold higher, 4.49 nM
- B5 — within 1.5-fold, 2.29 nM
- B6 — within 1.5-fold, 3.48 nM
- B7 — within 1.5-fold, 2.83 nM
- B8 — within 1.5-fold, 3.1 nM
- B9 — 1.5-fold higher, 4.52 nM
- B10 — 1.8-fold higher, 5.4 nM
- B11 — 2.6-fold lower, 1.14 nM

Point of comparison: B6, koff 0.00132 s⁻¹. Against it:
- B1 — within 1.5-fold, 0.00117 s⁻¹
- B2 — within 1.5-fold, 0.00183 s⁻¹
- B3 — within 1.5-fold, 0.00174 s⁻¹
- B4 — within 1.5-fold, 0.00167 s⁻¹
- B5 — within 1.5-fold, 0.00138 s⁻¹
- B7 — within 1.5-fold, 0.00131 s⁻¹
- B8 — within 1.5-fold, 0.00158 s⁻¹
- B9 — 1.6-fold higher, 0.00205 s⁻¹
- B10 — within 1.5-fold, 0.00193 s⁻¹
- B11 — 1.6-fold lower, 0.00082 s⁻¹

Point of comparison: B10, kon 358000 M⁻¹ s⁻¹. Against it:
- B1 — within 1.5-fold, 338000 M⁻¹ s⁻¹
- B2 — within 1.5-fold, 341000 M⁻¹ s⁻¹
- B3 — within 1.5-fold, 387000 M⁻¹ s⁻¹
- B4 — 1.6-fold higher, 558000 M⁻¹ s⁻¹
- B5 — 1.7-fold higher, 602000 M⁻¹ s⁻¹
- B6 — within 1.5-fold, 380000 M⁻¹ s⁻¹
- B7 — within 1.5-fold, 463000 M⁻¹ s⁻¹
- B8 — within 1.5-fold, 511000 M⁻¹ s⁻¹
- B9 — within 1.5-fold, 454000 M⁻¹ s⁻¹
- B11 — 2-fold higher, 719000 M⁻¹ s⁻¹

Biological target: D-VEGF, synthetic D-protein form of VEGF-A(8-109) (Homo sapiens (Human)) (UniProt P15692)
Test: SPR (ProteOn XPR36), D-VEGF immobilized
Remark: another data set of the same source

For B1, the Kd was 13.4 nM.

For B1, the koff was 0.00347 s⁻¹.

B1 showed a kon of 260000 M⁻¹ s⁻¹.
